T1: human Chemokine-like receptor 1, CMKLR1 (ProLink (PK) tagged GPCR in PathHunter β-Arrestin cells) (human) (UniProt Q99788)
T1 sequence: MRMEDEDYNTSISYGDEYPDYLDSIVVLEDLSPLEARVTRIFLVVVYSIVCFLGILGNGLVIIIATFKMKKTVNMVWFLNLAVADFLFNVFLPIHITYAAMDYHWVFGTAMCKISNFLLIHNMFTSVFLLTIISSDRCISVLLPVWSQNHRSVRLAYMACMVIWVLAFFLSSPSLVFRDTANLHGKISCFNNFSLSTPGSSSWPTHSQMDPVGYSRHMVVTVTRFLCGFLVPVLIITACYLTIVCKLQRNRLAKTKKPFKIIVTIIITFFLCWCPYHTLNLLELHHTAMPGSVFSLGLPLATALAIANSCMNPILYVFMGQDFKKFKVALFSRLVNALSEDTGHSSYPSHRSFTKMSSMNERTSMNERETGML

Non-standard residues stand in square brackets, D forms with d. Primed or numbered codes have the meaning given here. No end group written: not given here. *: point of attachment. PEG8′ = polyethylene glycol linker with an average of 8 ethylene glycol units; fluorPhe = fluorinated phenylalanine; Palmitoyl = CCCCCCCCCCCCCCCC(=O)*; Tic = O=C(O)[C@@H]1Cc2ccccc2CN1; Aad = N[C@@H](CCCC(=O)O)C(=O)O; Nle = CCCC[C@H](N)C(=O)O; Nva = CCC[C@H](N)C(=O)O Bounds are passed on as bounds.

The target of the assay is T1, human Chemokine-like receptor 1, CMKLR1 (ProLink (PK) tagged GPCR in PathHunter β-Arrestin cells) (human).
In turn, {Palmitoyl-PEG8′}-AG[dY]F[Nle]P[dS]QFA[Tic][dS] [OK-114] gave an EC50, PathHunter β-Arrestin recruitment assay, agonist format of under 0.5 nM. Consider {Palmitoyl-PEG8′}-AGFF[Nle]PSQFA[Tic][dA] [OK-115], for which the EC50, PathHunter β-Arrestin recruitment assay, agonist format is 12.4 nM.

As for {Palmitoyl-PEG8′}-[dA]G[dY]F[Nle]P[dS]Q[fluorPhe][dA][Tic][dA] (also: fluorPhe9: fluorine position not given here) [OK-112], the EC50, PathHunter β-Arrestin recruitment assay, agonist format amounted to 1.4 nM. For {Palmitoyl-PEG8′}-AGYF[Nle]PTNFA[Tic][dA] [OK-105] the value was 203 nM. For {Palmitoyl-PEG8′}-AAYF[Nle]PSQY[dA]F[dA] [OK-107] the value was 1710 nM. For the molecule {Palmitoyl-PEG8′}-AAFY[Nle]PSQYA[Tic][dA] [OK-104], the EC50, PathHunter β-Arrestin recruitment assay, agonist format turned out to be 2.6 nM. Then {Palmitoyl-PEG8′}-[Nva]G[dY]F[Nle]P[dS]QF[dA][Tic][dA] [OK-113], with under 0.5 nM. Then {Palmitoyl-PEG8′}-AAFY[Nle]PTQFA[Tic][dA] [OK-106], with 32.5 nM; and {Palmitoyl-PEG8′}-AG[dY]F[Nle]P[dS][Aad]FA[Tic][dA] [OK-109], with under 0.5 nM; and {Palmitoyl-PEG8′}-GGFF[Nle]PSQFA[Tic][dS] [OK-116], with 63.9 nM. Then {Palmitoyl-PEG8′}-[dA]G[dY]F[Nle]P[dS]QF[dA][Tic][dA] [OK-102], with 2.3 nM; and {Palmitoyl-PEG8′}-[dA]G[dY]F[Nle]P[dS][Aad]F[dA][Tic][dA] [OK-111], with 15 nM. The molecule {Palmitoyl-PEG8′}-GG[dY]FLP[dS]QF[dA][Tic]S [OK-101] showed an EC50, PathHunter β-Arrestin recruitment assay, agonist format of 2.6 nM. Then {Palmitoyl-PEG8′}-AAYF[Nle]PSQFA[Tic][dA] [OK-103], with 43 nM.

The record behind these values is patent publication US20220267377A1.
